{"source": "patent US20030096757", "proteins": {"B1": {"name": "Proenzyme pro-MMP-9 (protein)", "chain": "APRQRQSTLVLFPGDLRTNLTDRQLAEEYLYRYGYTRVAEMRGESKSLGPALLLLQKQLSLPETGELDSATLKAMRTPRCGVPDLGRFQTFEGDLKWHHHNITYWIQNYSEDLPRAVIDDAFARAFALWSAVTPLTFTRVYSRDADIVIQFGVAEHGDGYPFDGKDGLLAHAFPPGPGIQGDAHFDDDELWSLGKGVVVPTRFGNADGAACHFPFIFEGRSYSACTTDGRSDGLPWCSTTANYDTDDRFGFCPSERLYTQDGNADGKPCQFPFIFQGQSYSACTTDGRSDGYRWCATTANYDRDKLFGFCPTRADSTVMGGNSAGELCVFPFTFLGKEYSTCTSEGRGDGRLWCATTSNFDSDKKWGFCPDQGYSLFLVAAHEFGHALGLDHSSVPEALMYPMYRFTEGPPLHKDDVNGIRHLYGPRPEPEPRPPTTTTPQPTAPPTVCPTGPPTVHPSERPTAGPTGPPSAGPTGPPTAGPSTATTVPLSPVDDACNVNIFDAIAEIGNQLYLFKDGKYWRFSEGRGSRPQGPFLIADKWPALPRKLDSVFEERLSKKLFFFSGRQVWVYTGASVLGPRRLDKLGLGADVAQVTGALRSGRGKMLLFSGRRLWRFDVKAQMVDPRSASEVDRMFPGVPLDTHDVFQYREKAYFCQDRFYWRVSSRSELNQVDQVGYVTYDILQCPED"}}, "target": "T1, 19-mer (SEQ ID NO:11) cleavage domain peptide", "T1 chain": "PRCGNPDVANYNFFPRKPK", "data": [{"protein": "B1", "values": [{"measurement": "anti-activation (splicing) assay: conversion of pro-MMP-9 by stromilysin, HPLC peak areas", "result": "Titrating the standard splicing reaction with the 19-mer (SEQ ID NO:11) peptide prevents the conversion of pro-MMP-9 into the prodomain and the active enzyme. Splicing can be inhibited in a dose dependent manner with micromolar 19-mer (SEQ ID NO:11) peptide."}]}]}
